Experimental data published in patent US20140087995A1 (published 2014).
Numbered stars: 1 amine (or outer) side, 2 acyl side, 3 side chain; on linkers, the order of the positions; unused ones are H or OH. Bridge positions count the residues as written; N and C are the ends. Side chains are listed from the residue outwards. Ends that are not written are not given here. * marks the point of attachment. C20 diacid = O=C(O)CCCCCCCCCCCCCCCCCCC(=O)*; C18 diacid = O=C(O)CCCCCCCCCCCCCCCCC(=O)*; C16 diacid = O=C(O)CCCCCCCCCCCCCCC(=O)*; γGlu = O=C(O)[C@H](CCC(=O)[*:2])N[*:1]; C14 diacid = O=C(O)CCCCCCCCCCCCC(=O)*; AEEA = NCCOCCOCC(=O)O

Columns and labels:
[1] = molecular target: T1, rat amylin receptor (rat calcitonin receptor + rat RAMP 3) (rat, UniProt P32214 25-516; Q9JJ73 23-147); assay: SPA competition with 125I-rat amylin on membranes of BHK tk'ts 13 cells with rat calcitonin receptor + rat RAMP3 (Assay VI)
T1 construct: whole, on cells; Membranes of transiently transfected BHK tk'ts 13 cells; also called rAmylin-R; rat amylin 3(a) receptor
T1 sequence (looked up) 1: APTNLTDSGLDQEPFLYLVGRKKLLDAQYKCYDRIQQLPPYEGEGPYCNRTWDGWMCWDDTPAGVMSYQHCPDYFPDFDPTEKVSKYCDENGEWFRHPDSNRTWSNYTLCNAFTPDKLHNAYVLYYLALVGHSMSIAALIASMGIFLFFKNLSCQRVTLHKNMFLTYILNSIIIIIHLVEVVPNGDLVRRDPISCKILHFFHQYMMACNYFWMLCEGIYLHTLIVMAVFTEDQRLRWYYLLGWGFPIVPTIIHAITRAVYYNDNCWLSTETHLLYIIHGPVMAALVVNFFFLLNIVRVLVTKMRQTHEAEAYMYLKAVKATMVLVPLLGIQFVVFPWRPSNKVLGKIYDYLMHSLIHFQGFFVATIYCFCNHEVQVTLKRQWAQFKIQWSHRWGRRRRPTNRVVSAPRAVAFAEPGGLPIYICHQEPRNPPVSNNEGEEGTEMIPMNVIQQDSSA
T1 sequence (looked up) 2: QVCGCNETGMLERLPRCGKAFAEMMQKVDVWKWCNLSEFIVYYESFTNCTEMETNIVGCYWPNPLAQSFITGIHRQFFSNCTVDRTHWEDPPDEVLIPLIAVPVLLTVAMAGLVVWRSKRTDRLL

rat calcitonin receptor [2] = molecular target: T2, rat calcitonin receptor (rat, UniProt P32214 25-516); assay: ratio of IC50 on rat calcitonin receptor to IC50 on rat amylin receptor (reference m40)
T2 construct: whole, on cells; Membranes of transiently transfected BHK tk'ts 13 cells; also called rCTR; rat calcitonin (a) receptor
T2 sequence (looked up): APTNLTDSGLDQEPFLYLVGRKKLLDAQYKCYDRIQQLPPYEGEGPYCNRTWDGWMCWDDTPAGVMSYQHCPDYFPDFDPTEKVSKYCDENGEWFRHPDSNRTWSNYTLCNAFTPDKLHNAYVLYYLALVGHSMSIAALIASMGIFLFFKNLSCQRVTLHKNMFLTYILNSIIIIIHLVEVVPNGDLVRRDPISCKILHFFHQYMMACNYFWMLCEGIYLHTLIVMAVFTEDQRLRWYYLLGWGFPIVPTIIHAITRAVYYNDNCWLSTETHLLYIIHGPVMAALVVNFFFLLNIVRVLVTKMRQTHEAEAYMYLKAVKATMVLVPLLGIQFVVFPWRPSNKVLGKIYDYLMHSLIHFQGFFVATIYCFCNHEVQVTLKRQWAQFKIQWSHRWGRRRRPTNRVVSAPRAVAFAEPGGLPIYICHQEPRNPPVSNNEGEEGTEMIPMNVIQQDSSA

[3] = molecular target: T3, human calcitonin receptor (human, UniProt P30988 25-474); assay: ratio of IC50 on human calcitonin receptor to IC50 on human amylin receptor (reference m42), SPA competition
T3 construct: whole, on cells; Membranes of stably transfected cells; also called hCTR; hCT
T3 sequence (looked up): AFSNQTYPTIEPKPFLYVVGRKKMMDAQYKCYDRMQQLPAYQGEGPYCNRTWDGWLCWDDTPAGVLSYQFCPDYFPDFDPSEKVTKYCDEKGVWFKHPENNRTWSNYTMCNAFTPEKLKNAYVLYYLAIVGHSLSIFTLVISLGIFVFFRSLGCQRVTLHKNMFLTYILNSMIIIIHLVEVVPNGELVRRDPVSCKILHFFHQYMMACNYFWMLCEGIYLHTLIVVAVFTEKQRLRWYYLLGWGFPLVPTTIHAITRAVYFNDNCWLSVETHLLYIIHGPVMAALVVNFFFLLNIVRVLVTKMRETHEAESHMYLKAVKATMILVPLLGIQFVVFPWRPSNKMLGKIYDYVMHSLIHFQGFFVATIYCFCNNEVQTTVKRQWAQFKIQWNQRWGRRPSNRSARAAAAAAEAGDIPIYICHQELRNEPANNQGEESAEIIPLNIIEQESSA
Experimental: The resulting pellet was resuspended, homogenized and centrifuged (20.000 rpm, 15 min) in a buffer containing 20 mM Na-HEPES and 0.1 mM EDTA (pH 7.4, buffer 2). The resulting pellet was resuspended in buffer 2 and protein concentration was measured (BCA protein Assay, Pierce). The homogenate was kept cold during the whole procedure. The membranes were kept at −80° C. until use. The assay was performed in a 384 well Optiplate (PerkinElmer) in a total volume of 40 ul. Membranes were mixed with SPA beads. Final concentration of membranes 35 ng/μL final and SPA beads was 0.05 mg/well. Test-compounds were dissolved in DMSO and further diluted in assay buffer (50 mM Hepes, pH 7.4, 1 mM CaCl2, 5 mM MgCl₂, 0.1% OA and 0.02% Tween20). […] The final mixture was incubated with shaking at 400 rpm for 120 min at 25° C. prior to centrifugation (1500 rpm, 10 min). Samples were analyzed on TopCounter™ (Packard). The IC₅₀ was calculated using (one site binding competition analysis) GraphPad Prism5 as a measure of receptor affinity.
Membranes were prepared in the following way; the cells were rinsed with PBS and incubated with Versene for approximately 5 min before harvesting. The cells were flushed with PBS and the cell-suspension was centrifuged for 5 min at 1000 rpm. Cells were homogenized (Ultrathurrax) in a buffer containing 20 mM Na-HEPES and 10 mM EDTA (pH 7.4) and centrifuged at 20.000 rpm for 15 min. The resulting pellet was resuspended, homogenized and centrifuged (20.000 rpm, 15 min) in a buffer containing 20 mM Na-HEPES and 0.1 mM EDTA (pH 7.4, buffer 2). The resulting pellet was resuspended in buffer 2 and protein concentration was measured (BCA protein Assay, Pierce). The homogenate was kept cold during the whole procedure. The membranes were kept at −80° C. until use. Assay was performed in a 384 well Optiplate (PerkinElmer) in a total volume of 40 ul. Membranes were mixed with SPA beads.

rat calcitonin receptor [4] = molecular target: T2, rat calcitonin receptor; assay: SPA competition with 125I-calcitonin on membranes of BHK tk'ts 13 cells with rat calcitonin receptor (Assay VIII)

Binder	IC50 [1]	Ratio rCT/rAmylin binding (rat calcitonin receptor [2])	Ratio hCT/hAmylin binding [3]	IC50 (rat calcitonin receptor [4])
K([AEEA-AEEA-γGlu-C20 diacid])CNTATCATQRLANFLRHSSPNFGAIPSSTNVGPNTY-NH2 (disulfide 2-7; N-terminus assumed; SMILES CC[C@H](C)[C@H](NC(=O)[C@H](C)NC(=O)CNC(=O)[C@H](Cc1ccccc1)NC(=O)[C@H](CC(N)=O)NC(=O)[C@@H]1CCCN1C(=O)[C@H](CO)NC(=O)[C@H](CO)NC(=O)[C@H](Cc1c[nH]cn1)NC(=O)[C@H](CCCNC(=N)N)NC(=O)[C@H](CC(C)C)NC(=O)[C@H](Cc1ccccc1)NC(=O)[C@H](CC(N)=O)NC(=O)[C@H](C)NC(=O)[C@H](CC(C)C)NC(=O)[C@H](CCCNC(=N)N)NC(=O)[C@H](CCC(N)=O)NC(=O)[C@@H](NC(=O)[C@H](C)NC(=O)[C@@H]1CSSC[C@H](NC(=O)[C@@H](N)CCCCNC(=O)COCCOCCNC(=O)COCCOCCNC(=O)CC[C@H](NC(=O)CCCCCCCCCCCCCCCCCCC(=O)O)C(=O)O)C(=O)N[C@@H](CC(N)=O)C(=O)N[C@@H]([C@@H](C)O)C(=O)N[C@@H](C)C(=O)N[C@@H]([C@@H](C)O)C(=O)N1)[C@@H](C)O)C(=O)N1CCC[C@H]1C(=O)N[C@@H](CO)C(=O)N[C@@H](CO)C(=O)N[C@H](C(=O)N[C@@H](CC(N)=O)C(=O)N[C@H](C(=O)NCC(=O)N1CCC[C@H]1C(=O)N[C@@H](CC(N)=O)C(=O)N[C@H](C(=O)N[C@@H](Cc1ccc(O)cc1)C(N)=O)[C@@H](C)O)C(C)C)[C@@H](C)O, Synthetic acylated analogue of human amylin; also called compound 98)	0.137 nM	176	74.1	24.1 nM
K([γGlu-C14 diacid])CNTATCATQRLANFLRHSSPNFGAIPSSTNVGHNTY-NH2 (disulfide 2-7; N-terminus assumed; SMILES CC[C@H](C)[C@H](NC(=O)[C@H](C)NC(=O)CNC(=O)[C@H](Cc1ccccc1)NC(=O)[C@H](CC(N)=O)NC(=O)[C@@H]1CCCN1C(=O)[C@H](CO)NC(=O)[C@H](CO)NC(=O)[C@H](Cc1c[nH]cn1)NC(=O)[C@H](CCCNC(=N)N)NC(=O)[C@H](CC(C)C)NC(=O)[C@H](Cc1ccccc1)NC(=O)[C@H](CC(N)=O)NC(=O)[C@H](C)NC(=O)[C@H](CC(C)C)NC(=O)[C@H](CCCNC(=N)N)NC(=O)[C@H](CCC(N)=O)NC(=O)[C@@H](NC(=O)[C@H](C)NC(=O)[C@@H]1CSSC[C@H](NC(=O)[C@@H](N)CCCCNC(=O)CC[C@H](NC(=O)CCCCCCCCCCCCC(=O)O)C(=O)O)C(=O)N[C@@H](CC(N)=O)C(=O)N[C@@H]([C@@H](C)O)C(=O)N[C@@H](C)C(=O)N[C@@H]([C@@H](C)O)C(=O)N1)[C@@H](C)O)C(=O)N1CCC[C@H]1C(=O)N[C@@H](CO)C(=O)N[C@@H](CO)C(=O)N[C@H](C(=O)N[C@@H](CC(N)=O)C(=O)N[C@H](C(=O)NCC(=O)N[C@@H](Cc1c[nH]cn1)C(=O)N[C@@H](CC(N)=O)C(=O)N[C@H](C(=O)N[C@@H](Cc1ccc(O)cc1)C(N)=O)[C@@H](C)O)C(C)C)[C@@H](C)O, Synthetic acylated analogue of human amylin) [N^ε1-[(4S)-4-carboxy-4-(13-carboxytridecanoylamino)butanoyl]-[Arg17,Pro21,Pro27,His34]-h-amylin]	2.52 nM	280	23.5	707 nM
K([γGlu-C16 diacid])CNTATCATQRLANFLRHSSPNFGAIPSSTNVGHNTY-NH2 (disulfide 2-7; N-terminus assumed; SMILES CC[C@H](C)[C@H](NC(=O)[C@H](C)NC(=O)CNC(=O)[C@H](Cc1ccccc1)NC(=O)[C@H](CC(N)=O)NC(=O)[C@@H]1CCCN1C(=O)[C@H](CO)NC(=O)[C@H](CO)NC(=O)[C@H](Cc1c[nH]cn1)NC(=O)[C@H](CCCNC(=N)N)NC(=O)[C@H](CC(C)C)NC(=O)[C@H](Cc1ccccc1)NC(=O)[C@H](CC(N)=O)NC(=O)[C@H](C)NC(=O)[C@H](CC(C)C)NC(=O)[C@H](CCCNC(=N)N)NC(=O)[C@H](CCC(N)=O)NC(=O)[C@@H](NC(=O)[C@H](C)NC(=O)[C@@H]1CSSC[C@H](NC(=O)[C@@H](N)CCCCNC(=O)CC[C@H](NC(=O)CCCCCCCCCCCCCCC(=O)O)C(=O)O)C(=O)N[C@@H](CC(N)=O)C(=O)N[C@@H]([C@@H](C)O)C(=O)N[C@@H](C)C(=O)N[C@@H]([C@@H](C)O)C(=O)N1)[C@@H](C)O)C(=O)N1CCC[C@H]1C(=O)N[C@@H](CO)C(=O)N[C@@H](CO)C(=O)N[C@H](C(=O)N[C@@H](CC(N)=O)C(=O)N[C@H](C(=O)NCC(=O)N[C@@H](Cc1c[nH]cn1)C(=O)N[C@@H](CC(N)=O)C(=O)N[C@H](C(=O)N[C@@H](Cc1ccc(O)cc1)C(N)=O)[C@@H](C)O)C(C)C)[C@@H](C)O, Synthetic acylated analogue of human amylin) [N^ε1-[(4S)-4-carboxy-4-(15-carboxypentadecanoylamino)butanoyl]-[Arg17,Pro21,Pro27,His34]-h-amylin]	1.24 nM	327	18.5	404 nM
K([γGlu-C18 diacid])CNTATCATQRLANFLRHSSPNFGAIPSSTNVGHNTY-NH2 (disulfide 2-7; N-terminus assumed; SMILES CC[C@H](C)[C@H](NC(=O)[C@H](C)NC(=O)CNC(=O)[C@H](Cc1ccccc1)NC(=O)[C@H](CC(N)=O)NC(=O)[C@@H]1CCCN1C(=O)[C@H](CO)NC(=O)[C@H](CO)NC(=O)[C@H](Cc1c[nH]cn1)NC(=O)[C@H](CCCNC(=N)N)NC(=O)[C@H](CC(C)C)NC(=O)[C@H](Cc1ccccc1)NC(=O)[C@H](CC(N)=O)NC(=O)[C@H](C)NC(=O)[C@H](CC(C)C)NC(=O)[C@H](CCCNC(=N)N)NC(=O)[C@H](CCC(N)=O)NC(=O)[C@@H](NC(=O)[C@H](C)NC(=O)[C@@H]1CSSC[C@H](NC(=O)[C@@H](N)CCCCNC(=O)CC[C@H](NC(=O)CCCCCCCCCCCCCCCCC(=O)O)C(=O)O)C(=O)N[C@@H](CC(N)=O)C(=O)N[C@@H]([C@@H](C)O)C(=O)N[C@@H](C)C(=O)N[C@@H]([C@@H](C)O)C(=O)N1)[C@@H](C)O)C(=O)N1CCC[C@H]1C(=O)N[C@@H](CO)C(=O)N[C@@H](CO)C(=O)N[C@H](C(=O)N[C@@H](CC(N)=O)C(=O)N[C@H](C(=O)NCC(=O)N[C@@H](Cc1c[nH]cn1)C(=O)N[C@@H](CC(N)=O)C(=O)N[C@H](C(=O)N[C@@H](Cc1ccc(O)cc1)C(N)=O)[C@@H](C)O)C(C)C)[C@@H](C)O, Synthetic acylated analogue of human amylin) [N^ε1-[(4S)-4-carboxy-4-(17-carboxyheptadecanoylamino)butanoyl]-[Arg17,Pro21,Pro27,His34]-h-amylin]	1.17 nM	40.3	59.4	47 nM
